This note sets out measurements from US12391762B2, “Methods and compositions relating to GLP1R variants” (Twist Bioscience Corporation, priority 2020, dated 2025).

The experiment concerns CHO-parent cells. The experiment is described as follows: Flow cytometry binding assay on CHO-parent cells (background binding). The arrangement: species or system Chinese Hamster. Particulars: for Bmax CHO Parent: IgG titration. On the procedure: GLP-1R IgG clones were tested in a binding assay coupled to flow cytometry analysis as follows: FLAG-GLP-1R-GFP expressing CHO cells (CHO-GLP-1R) and CHO-parent cells were incubated with 100 nM IgG for 1 h on ice, washed three times and incubated with Alexa 647 conjugated goat-anti-human antibody (1:200) (Jackson ImmunoResearch Laboratories, 109-605-044) for 30 min on ice, followed by three washes, centrifuging to pellet the cells between each washing step. All incubations and washes were in buffer containing PBS+1% BSA. For titrations, IgG was serially diluted 1:3 starting from 100 nM down to 0.046 nM. Cells were analyzed by flow cytometry and hits (a hit is an IgG that specifically binds to CHO-GLP-1R) were identified by measuring the GFP signal against the Alexa 647 signal. Flow cytometry data of binding assays with 100 nM IgG are presented as dot plots. Analyses of binding assays with IgG titrations are presented as binding curves plotting IgG concentrations against MFI (mean fluorescence intensity).
For orientation: Flow cytometry measures light scatter and fluorescence of single cells or particles in a stream.

B1: GLP1R221-084: GLP1R-221 variant, optimized from GLP1R-3 (antibody, V domains shown)
VH: QVQLVESGGGVVQPGRSLRLSCAASGFAFSNYGMHWVRQAPGKGLEWVAVISSDENNKYYADSVKGRFTISRDNSKNTLYLQMNSLRAEDTAVYYCAKHMSMQEGAVTGEMQAAKEFIAWLVKGRVRADLVGDAFDVWGQGTLVTVSS
VL: QSVLTQPPSVSAAPGQKVTISCSGSSSNIADNYVSWYQQLPGTAPKLLIYENNRRPSGIPDRFSGSKSGTSATLGITGLQTGDEADYYCGTWDVSLSVGMFGGGTKLTVL
As for B1, the “Median RL1-H of Parent Singlets” value (Table 6C, GLP1R-221 variants) was 207. In addition, for the setting “Table 6E”, the “Bmax CHO Parent” value stood at 266.6.

B2: GLP1R221-033: GLP1R-221 variant, optimized from GLP1R-3 (antibody, V domains shown)
VH: QVQLVESGGGVVQPGRSLRLSCAASGFSFSNYAMHWVRQAPGKGLEWVAVISHDRSNKYYADSVKGRFTISRDNSKNTLYLQMNSLRAEDTAVYYCAKHMSMQEGAVTGEGQAAKDFIAWLVKGRVRADLVGDAFDVWGQGTLVTVSS
VL: QSVLTQPPSVSAAPGQKVTISCSGSSSNIGNEYVSWYQQLPGTAPKLLIYDNNKRVSGIPDRFSGSKSGTSATLGITGLQTGDEADYYCATWDTSLNVGVFGGGTKLTVL
Regarding B2, the “Median RL1-H of Parent Singlets” value (Table 6C, GLP1R-221 variants) is reported as 236. Also, the “Bmax CHO Parent” value (Table 6E) is listed as 146.

B3: GLP1R221-066: GLP1R-221 variant, optimized from GLP1R-3 (antibody, V domains shown)
VH: QVQLVESGGGVVQPGRSLRLSCAASGFTFNNYAMHWVRQAPGKGLEWVAVISYDRSNEYYADSVKGRFTISRDNSKNTLYLQMNSLRAEDTAVYYCAKHMSMQEGAVTGEGQAIKEFIAWLVKGRVRADLVGDAFDVWGQGTLVTVSS
VL: QSVLTQPPSVSAAPGQKVTISCSGSSSNIGNNYLSWYQQLPGTAPKLLIYENNKRPSGIPDRFSGSKSGTSATLGITGLQTGDEADYYCGIWDRSLSAWVFGGGTKLTVL
On to B3, for which, under “Table 6C, GLP1R-221 variants”, the “Median RL1-H of Parent Singlets” value was 240. Further, the “Bmax CHO Parent” value (Table 6E) worked out at 112.1.

B4: GLP1R222-081: GLP1R-222 variant, optimized from GLP1R-3 (antibody, V domains shown)
VH: QVQLVESGGGVVQPGRSLRLSCAASGFTFDNYALHWVRQAPGKGLEWVALISYDAGNKYYADSVKGRFTISRDNSKNTLYLQMNSLRAEDTAVYYCAKHMSMQEGAVTGEGQAAKEFIAWLVKGFVRADLVGDAFDVWGQGTLVTVSS
VL: QSVLTQPPSVSAAPGQKVTISCSGSSSNIGSDYVSWYQQLPGTAPKLLIYDNNKRSSGIPDRFSGSKSGTSATLGITGLQTGDEADYYCGTWDESLRSWVFGGGTKLTVL
Take B4: for the setting “Table 6D, GLP1R-222 variants”, the “Median RL1-H of Parent Singlets” value is given as 260. For the same molecule, the “Bmax CHO Parent” value (Table 6F) was 243.4.

B5: GLP1R221-065: GLP1R-221 variant, optimized from GLP1R-3 (antibody, V domains shown)
VH: QVQLVESGGGVVQPGRSLRLSCAASGFTFNNYAMHWVRQAPGKGLEWVAVISYDRSNEYYADSVKGRFTISRDNSKNTLYLQMNSLRAEDTAVYYCAKHMSMQEGAVTGDGQAAKEFIAWLVKGRVRADLVGDAFDVWGQGTLVTVSS
VL: QSVLTQPPSVSAAPGQKVTISCSGTTSNIANNFVSWYQQLPGTAPKLLIYDHNKRPSGIPDRFSGSKSGTSATLGITGLQTGDEADYYCGTWDTSLSAGAFGGGTKLTVL
For the molecule B5, the “Median RL1-H of Parent Singlets” value (Table 6C, GLP1R-221 variants) is reported as 298. For the same molecule, the “Bmax CHO Parent” value (Table 6E) is 261.9.

B6: GLP1R221-092: GLP1R-221 variant, optimized from GLP1R-3 (antibody, V domains shown)
VH: QVQLVESGGGVVQPGRSLRLSCAASGFIFNNYGMHWVRQAPGKGLEWVAFISYGGSNKYYADSVKGRFTISRDNSKNTLYLQMNSLRAEDTAVYYCAKHMSMQEGAVTGEGQAVKEFIAWLVKGRVRADLVGDAFDVWGQGTLVTVSS
VL: QSVLTQPPSVSAAPGQKVTISCSGTTSNIANNFVSWYQQLPGTAPKLLIYDNNKRPPGIPDRFSGSKSGTSATLGITGLQTGDEADYYCGTWDTSLSVGMFGGGTKLTVL
With B6, under “Table 6C, GLP1R-221 variants”, the “Median RL1-H of Parent Singlets” value is 326. In addition, where the note is “Table 6E”, the “Bmax CHO Parent” value was 291.2.

B7: GLP1R222-014: GLP1R-222 variant, optimized from GLP1R-3 (antibody, V domains shown)
VH: QVQLVESGGGVVQPGRSLRLSCAASGFAFSNYGMHWVRQAPGKGLEWVSFISYDESNKYYADSVKGRFTISRDNSKNTLYLQMNNLRAEDTAVYYCAKHMSMQEGAVTGEWQAAKEFIAWLVKGRVRADLVGDAFDVWGQGTLVTVSS
VL: QSVLTQPPSVSAAPGQKVTISCSGSSSNIGNHDVSWYQQLPGTAPKLLIYDNNKRHSGIPDRFSGSKSGTSATLGITGLQTGDEADYYCGTWDTSLSAGVFGGGTKLTVL
As for B7, where the note is “Table 6D, GLP1R-222 variants”, the “Median RL1-H of Parent Singlets” value worked out at 299. Under “Table 6F”, the “Bmax CHO Parent” value amounted to 336.4.

B8: GLP1R221-009: GLP1R-221 variant, optimized from GLP1R-3 (antibody, V domains shown)
VH: QVQLVESGGGVVQPGRSLRLSCAASGFIFSNYGMHWVRQAPGKGLEWVAVISDEGSNKYYADSVKGRFTISRDNSKNTLYLQMNSLRAEDTAVYYCAKHMSMQEGAVTGAGQAAKEFIAWLVKGRVRADLVGDAFDVWGQGTLVTVSS
VL: QSVLTQPPSVSAAPGQKVTISCSGSSSNIGNQYVSWYQQLPGTAPKLLIYDDHKRPSGIPDRFSGSKSGTSATLGITGLQTGDEADYYCGTWDTSLSVGEFGGGTKLTVL
As for B8, the “Median RL1-H of Parent Singlets” value (Table 6C, GLP1R-221 variants) is recorded as 197. For the same molecule, under “Table 6E”, the “Bmax CHO Parent” value was found to be 267.4.

B9: GLP1R221-075: GLP1R-221 variant, optimized from GLP1R-3 (antibody, V domains shown)
VH: QVQLVESGGGVVQPGRSLRLSCAASGFTFSNYPMHWVRQAPGKGLEWVAVISYDETNKYYADSVKGRFTISRDNSKNTLYLQMNSLRAEDTAVYYCAKHMSMQEGAVTGEGQAAKEFIAWLVKGIVRADLVGDAFDVWGQGTLVTVSS
VL: QSVLTQPPSVSAAPGQKVTISCSGSGSNIGNNDVSWYQQLPGTAPKLLIYDNDKRPAGIPDRFSGSKSGTSATLGITGLQTGDEADYYCGTWDTSLSNYVFGGGTKLTVL
On to B9, for which the “Median RL1-H of Parent Singlets” value (Table 6C, GLP1R-221 variants) is reported as 206. Where the note is “Table 6E”, the “Bmax CHO Parent” value is listed as 234.

B10: GLP1R222-073: GLP1R-222 variant, optimized from GLP1R-3 (antibody, V domains shown)
VH: QVQLVESGGGVVQPGRSLRLSCAASGFTFRDYGMHWVRQAPGKGLEWVAFIRYDEINKYYADSVKGRFTISRDNSKNTLYLQMNSLRAEDTAVYYCAKHMSMQEGAVTGEGQAAKEFIAWLVGGRVRADLVGDAFDVWGQGTLVTVSS
VL: QSVLTQPPSVSAAPGQKVTISCSGSGSNIGNNDVSWYQQLPGTAPKLLIYDNNKRASGIPDRFSGSKSGTSATLGITGLQTGDEADYYCGTWDRGPNTGVFGGGTKLTVL
For B10, where the note is “Table 6D, GLP1R-222 variants”, the “Median RL1-H of Parent Singlets” value is listed as 229. The “Bmax CHO Parent” value (Table 6F) came out at 228.4.

B11: GLP1R221-034: GLP1R-221 variant, optimized from GLP1R-3 (antibody, V domains shown)
VH: QVQLVESGGGVVQPGRSLRLSCAASGFPFSNYGMHWVRQAPGKGLEWVAVISHDRSNKYYADSVKGRFTISRDNSKNTLYLQMNSLRAEDTAVYYCAKHMSMQEGAVTGEGQAVKEFIAWLVKGRVRADLVGDAFDVWGQGTLVTVSS
VL: QSVLTQPPSVSAAPGQKVTISCSGSSSNIGNNPVSWYQQLPGTAPKLLIYENDNRPSGIPDRFSGSKSGTSATLGITGLQTGDEADYYCATWDRGLSTGVFGGGTKLTVL
B11: the “Median RL1-H of Parent Singlets” value (Table 6C, GLP1R-221 variants) is recorded as 314. Further, where the note is “Table 6E”, the “Bmax CHO Parent” value is reported as 279.8.

B12: GLP1R222-056: GLP1R-222 variant, optimized from GLP1R-3 (antibody, V domains shown)
VH: QVQLVESGGGVVQPGRSLRLSCAASGFPFSSYAMHWVRQAPGKGLEWVAVISYDRSNKYYADSVKGRFTISRDNSKNTLYLQMNSLRAEDTAVYYCAKHMSMQEGAVTGYGQAAKEFIAWLVKGFVRADLVGDAFDVWGQGTLVTVSS
VL: QSVLTQPPSVSAAPGQKVTISCSGSSSNIGSNYISWYQQLPGTAPKLLIYDNDKRPAGIPDRFSGSKSGTSATLGITGLQTGDEADYYCGTWDTSLSVGEFGGGTKLTVL
Turning to B12, the “Median RL1-H of Parent Singlets” value (Table 6D, GLP1R-222 variants) came to 230. Moreover, where the note is “Table 6F”, the “Bmax CHO Parent” value turned out to be 237.5.

B13: GLP1R221-076: GLP1R-221 variant, optimized from GLP1R-3 (antibody, V domains shown)
VH: QVQLVESGGGVVQPGRSLRLSCAASGFTFNNYPMHWVRQAPGKGLEWVAVISYDETNKYYADSVKGRFTISRDNSKNTLYLQMNSLRAEDTAVYYCAKHMSMQEGAVTGEGQAAKEFIAWLVKGIVRADLVGDAFDVWGQGTLVTVSS
VL: QSVLTQPPSVSAAPGQKVTISCSGTSSNIGNNDVSWYQQLPGTAPKLLIYENNKRHSGIPDRFSGSKSGTSATLGITGLQTGDEADYYCLTWDHSLTAYVFGGGTKLTVL
Consider B13, for which, under “Table 6C, GLP1R-221 variants”, the “Median RL1-H of Parent Singlets” value is reported as 316. Further, the “Bmax CHO Parent” value (Table 6E) is on record as 183.2.

B14: GLP1R221-017: GLP1R-221 variant, optimized from GLP1R-3 (antibody, V domains shown)
VH: QVQLVESGGGVVQPGRSLRLSCAASGFTFSDYGVHWVRQAPGKGLEWVAFISYDESNKYYADSVKGRFTISRDNSKNTLYLQMNSLRAEDTAVYYCAKHMSMQEGAVTGEYQAAKEFIAWLVKGRVRADLVGDAFDVWGQGTLVTVSS
VL: QSVLTQPPSVSAAPGQKVTISCSGSSSNIGNTYVSWYQQLPGTAPKLLIYDDYKRPSGIPDRFSGSKSGTSATLGITGLQTGDEADYYCATWDATLNTGVFGGGTKLTVL
In the case of B14, the “Median RL1-H of Parent Singlets” value (Table 6C, GLP1R-221 variants) stood at 162. Besides, for the setting “Table 6E”, the “Bmax CHO Parent” value came to 228.7.
